Measured values published in PMC10673124.

Biological target: Elastase (UniProt P00772)
Sequence of UniProt P00772 (P00772 27-266): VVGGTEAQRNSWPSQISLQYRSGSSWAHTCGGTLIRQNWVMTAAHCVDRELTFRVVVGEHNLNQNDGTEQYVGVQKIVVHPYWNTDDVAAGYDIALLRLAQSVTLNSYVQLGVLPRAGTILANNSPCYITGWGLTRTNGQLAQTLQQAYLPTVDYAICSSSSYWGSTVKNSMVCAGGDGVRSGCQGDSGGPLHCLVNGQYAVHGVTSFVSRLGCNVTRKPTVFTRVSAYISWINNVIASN

elastase inhibitory activity (%), peptide at 10-20 mM, substrate N-Succinyle-Ala-Ala-Ala-pNA: 76.3%
B1: S1 (…) (peptide)
peptide: VGVPGVGVPGVGVPGV
